Test results as given in patent US7098013B2, “Polypeptide having α-isomaltosyl-transferase activity” (Kabushiki Kaisha Hayashibara Seibutsu Kagaku Kenkyujo, priority 2000, dated 2006).

B1: polypeptide having α-isomaltosyl-transferring enzyme activity from Bacillus globisporus N75: purified α-isomaltosyl-transferring enzyme from Bacillus globisporus N75 (FERM BP-7591), contains the … (protein, listed as Bacillus globisporus)
chain: IDGVYHAPYGIDDLYEIQATERSPRDPVAGETVYIKITTWPIEPGQTAWVTWTKNGVAQPAVGAAYKYNSGNNTYWEANLGSFAKGDVISYTVRGNKDGANEKTAGPFTFTVTDWEYVSSIGSVTNNTNRVLLNAVPNTGTLSPKINISFTADDVFRVQLSPTGSGTLSTGLSNFTVTDSASTAWISTSKLKLKVDKNPFKLSVYKPDGTTLIARQYDSTANRNLAWLTNGSTVINKIEDHFYSPASEEFFGFGERYNNFRKRGTDVDTYVYNQYKNQNDRTYMAIPFMLNSSGYGIFVNSTYYSKFRLATERSDMYSFTADTGGSANSTLDYYFIYGNDLKGVVSNYANITGKPAALPKWAFGLWMSANEWDRQSKVATAINNANTNNIPATAVVLEQWSDENTFYMFNDAQYTAKPGGSTHSYTDYIFPAAGRWPNPKQMADNVHSNGMKLVLWQVPIQKWTAAPHLQKDNDESYMIAQNYAVGNGSGGQYRIPSGQWFENSLLLDFTNPSAKNWWMSKRAYLFDGVGIDGFKTDGGEMVWGRWNTFANGKKGDEMRNQYPNDYVKAYNEYARSKKSDAVSFSRSGTQGAQANQIFWSGDQESTFGAFQQAVQAGLTAGLSGVPYWSWDLAGFTGAYPSAELYKRATAMSAFAPIMQFHSEANGSSGINEERSPWNAQARTGDNTIISHFAKYTNTRMNLLPYIYSEAKAASDTGVPMMRAMALEYPSDTQTYGLTQQYMFGGSLLVAPVLNQGETNKNIYLPQGDWIDFWFGAQRPGGRTISYYAGVDDLPVFVKSGSILPMNLNGQYQVGGTIGNSLTAYNNLTFRIYPLGTTTYSWNDDIGGSVKTITSTEQYGLNKETVTLPAINSAKTLQVFTTKPSSVTLGGTALTAHSTLSALIGASSGWYYDTVQKLAYVKLGASSSAQTVVLDGVNKVEYEAEFGTLTGVTTNTNHAGYMGTGFVDGFDAAGDAVTFDVSVKAAGTYALKVRYASAGGNASRAIYVNNAKVTDLALPATANWDTWGTATVNVALNAGYNSIKVSYDNTNTLGINLDNIAIVEH
B2: polypeptide having α-isomaltosyl-transferring enzyme activity from Bacillus globisporus C11: purified α-isomaltosyl-transferring enzyme from Bacillus globisporus C11 (FERM BP-7144), contains the … (protein, listed as Bacillus globisporus)
chain: IDGVYHAPYGIDDLYEIQATERSPRDPVAGDTVYIKITTWPIESGQTAWVTWTKNGVNQAAVGAAFKYNSGNNTYWEANLGTFAKGDVISYTVHGNKDGANEKVIGPFTFTVTGWESVSSISSITDNTNRVVLNAVPNTGTLKPKINLSFTADDVLRVQVSPTGTGTLSSGLSNYTVSDTASTTWLTTSKLKVKVDKNPFKLSVYKPDGTTLIARQYDSTTNRNIAWLTNGSTIIDKVEDHFYSPASEEFFGFGEHYNNFRKRGNDVDTYVFNQYKNQNDRTYMAIPFMLNSSGYGIFVNSTYYSKFRLATERTDMFSFTADTGGSAASMLDYYFIYGNDLKNVVSNYANITGKPTALPKWAFGLWMSANEWDRQTKVNTAINNANSNNIPATAVVLEQWSDENTFYIFNDATYTPKTGSAAHAYTDFTFPTSGRWTDPKAMADNVHNNGMKLVLWQVPIQKWTSTPYTQKDNDEAYMTAQNYAVGNGSGGQYRIPSGQWFENSLLLDFTNTAAKNWWMSKRAYLFDGVGIDGFKTDGGEMVWGRSNTFSNGKKGNEMRNQYPNEYVKAYNEYARSKKADAVSFSRSGTQGAQANQIFWSGDQESTFGAFQQAVNAGLTASMSGVPYWSWDMAGFTGTYPTAELYKRATEMAAFAPVMQFHSESNGSSGINEERSPWNAQARTGDNTIISHFAKYTNTRMNLLPYIYSEAKMASDTGVPMMRAMALEYPKDTNTYGLTQQYMFGGNLLIAPVMNQGETNKSIYLPQGDWIDFWFGAQRPGGRTISYTAGIDDLPVFVKFGSILPMNLNAQYQVGGTIGNSLTSYTNLAFRIYPLGTTTYDWNDDIGGSVKTITSTEQYGLNKETVTVPAINSTKTLQVFTTKPSSVTVGGSVMTEYSTLTALTGASTGWYYDTVQKFTYVKLGSSASAQSVVLNGVNKVEYEAEFGVQSGVSTNTNHAGYTGTGFVDGFETLGDNVAFDVSVKAAGTYTMKVRYSSGAGNGSRAIYVNNTKVTDLALPQTTSWDTWGTATFSVSLSTGLNTVKVSYDGTSSLGINFDNIAIVEQ

Columns and labels:
[1] = Optimum temperature of the enzyme activity; type: biochemical; conditions: incubated for 30 min, pH 6.0
Procedure: (§1) The activity of α-isomaltosyl-transferring enzyme was measured by the following assay: A substrate solution was prepared by dissolving panose in 100 mM acetate buffer (pH 6.0) to give a concentration of 2% (w/v). A reaction mixture was prepared by mixing 0.5 ml of the substrate solution and 0.5 ml of an enzyme solution, and incubated at 35° C. for 30 min. After stopping the reaction by boiling for 10 min, the amount of glucose formed in the reaction mixture was determined by the glucose oxidase-peroxidase method. One unit of α-isomaltosyl-transferring activity was defined as the amount of the enzyme that forms one μmole of glucose per minute under the above conditions.
A purified specimen of polypeptide having α-isomaltosyl-transferring activity, obtained by the method in Experiment 3-2, was acted on the substrate in 20 mM acetate buffer (pH6.0) at various temperatures for 30 min, according to the assay method of α-isomaltosyl-transferring enzyme disclosed in Experiment 1-1.

[2] = Optimum pH of the enzyme activity; type: biochemical; conditions: MacIlvaine buffer, 35° C., 30 min
Procedure: as §1
A purified specimen of polypeptide having α-isomaltosyl-transferring activity, obtained by the method in Experiment 3-2, was acted on the substrate in MacIlvaine buffer of various pHs at 35° C. for 30 min according to the assay method of α-isomaltosyl-transferring enzyme disclosed in Experiment 1-1.

[3] = Thermal stability of the polypeptide; type: physicochemical; conditions: 20 mM acetate buffer (pH 6.0), 60 min
Procedure: A purified specimen of polypeptide having α-isomaltosyl-transferring activity, obtained by the method in Experiment 3-2, was incubated in 20 mM acetate buffer (pH6.0) at various temperatures for 60 min according to the assay method of α-isomaltosyl-transferring enzyme disclosed in Experiment 1-1.

Molecule | optimum temperature [1] | optimum pH [2] | thermal stability [3]
B1 | about 50 °C | about 6.0 | up to 45 °C
B2 | about 50 °C | – | up to 40 °C
